Patent publication US20220153864A1 (Pieris, published 2022)

How the values were obtained:
[1] = molecular target: T1, human CD137 expressed on cells (Flp-In-CHO::huCD137; NFkB-luc2/CD137 Jurkat cells) (human, UniProt Q07011 24-255); assay: flow cytometry on Flp-In-CHO::huCD137 cells, anti-human IgG detection
T1 construct: whole, on cells; also called human CD137-expressing cells
Experimental: For flow cytometric analysis, respective cell lines were incubated with an exemplary fusion protein (SEQ ID NOs: 87 and 82), the GPC3 antibody or the CD137 specific lipocalin mutein (Fc fusion) as included in the fusion protein (SEQ ID NOs: 81 and 82 and SEQ ID NO: 98, respectively), a reference CD137 antibody SEQ ID NOs: 26 and 27, or an isotype control (SEQ ID NOs: 24 and 25) and detected using a fluorescently labeled anti-human IgG antibody in FACS analysis as described in the following:
5×10⁴ cells per well were incubated for 1 h in ice-cold PBS containing 5% fetal calf serum (PBS-FCS). A dilution series of the testing molecule were added to the cells and incubated for 1 h on ice. Cells were washed twice with PBS and then incubated with a goat anti-hlgG Alexa647-labeled antibody or goat anti-hlgG Alexa488-labeled antibody for 30 min on ice. Cells were subsequently washed and analyzed using iQue Flow cytometer (Intellicyte Screener). Mean geometric fluorescent signals were plotted and fitted with Graphpad software. The geometric means of the fluorescence intensity were used to calculate EC₅₀ values using a four-parameter logistic regression with bottom fixed to background.

[2] = molecular target: T2, huCD137-His (recombinant human CD137 with C-terminal polyhistidine tag, R&D Systems) (human, UniProt Q07011 24-186); assay: ELISA, huCD137-His coated, detection anti-NGAL-HRP
T2 construct: also called biotinylated huCD137-His; not shown: C-terminal polyhistidine tag
Experimental: (§1) Recombinant huGPC3 (R&D Systems) at the concentration of 1 μg/mL in PBS was coated overnight on microtiter plates at 4° C. After five washes with 100 μL PBS-0.05% T (PBS supplemented with 0.05% (v/v) Tween 20), the plates were blocked with 2% BSA (w/v) in PBS-0.1% T (PBS-0.1% T-2% BSA) for 1 h at room temperature. After washing with 100 μL PBS-0.05% T (PBS supplemented with 0.05% (v/v) Tween 20) five times, exemplary fusion proteins (SEQ ID NOs: 87 and […] and CD137Ac1-Fusion 1 to 7) or the GPC3 antibody as include in the fusion proteins (SEQ ID NOs: 81 and 82) at different concentrations were added to the wells and incubated for 1 h at room temperature, followed by another wash step. Bound molecules under study were detected by incubation with 1:5000 diluted anti-human IgG Fc-HRP (Jackson Laboratory) in PBS-0.1% T-2% BSA. After an additional wash step, fluorogenic HRP substrate (QuantaBlu, Thermo) was added to each well and the fluorescence intensity was detected using a fluorescence microplate reader.
The same ELISA setup was also employed to determine the binding potency of fusion proteins to cynomolgus GPC3 and huCD137, where recombinant cyGPC3 (R&D Systems) or huCD137-His (recombinant human CD137 with C-terminal polyhistidine tag, R&D Systems) was instead coated on a microtiter plate. The testing agents were similarly titrated and bound agents were detected via anti-NGAL-HRP. […]

[3] = molecular target: T3, recombinant human GPC3 (huGPC3) (R&D Systems) (human, UniProt P51654 25-559); assay: ELISA, huGPC3 coated, detection anti-human IgG Fc-HRP
T3 construct: also called biotinylated huGPC3
Experimental: as §1
Exemplary results are depicted in FIG. 2A-2D, together with the fit curves resulting from a 1:1 binding sigmoidal fit, where the EC₅₀ value and the maximum signal were free parameters, and the slope was fixed to unity.

T3 sequence (P51654 25-559 limits assumed): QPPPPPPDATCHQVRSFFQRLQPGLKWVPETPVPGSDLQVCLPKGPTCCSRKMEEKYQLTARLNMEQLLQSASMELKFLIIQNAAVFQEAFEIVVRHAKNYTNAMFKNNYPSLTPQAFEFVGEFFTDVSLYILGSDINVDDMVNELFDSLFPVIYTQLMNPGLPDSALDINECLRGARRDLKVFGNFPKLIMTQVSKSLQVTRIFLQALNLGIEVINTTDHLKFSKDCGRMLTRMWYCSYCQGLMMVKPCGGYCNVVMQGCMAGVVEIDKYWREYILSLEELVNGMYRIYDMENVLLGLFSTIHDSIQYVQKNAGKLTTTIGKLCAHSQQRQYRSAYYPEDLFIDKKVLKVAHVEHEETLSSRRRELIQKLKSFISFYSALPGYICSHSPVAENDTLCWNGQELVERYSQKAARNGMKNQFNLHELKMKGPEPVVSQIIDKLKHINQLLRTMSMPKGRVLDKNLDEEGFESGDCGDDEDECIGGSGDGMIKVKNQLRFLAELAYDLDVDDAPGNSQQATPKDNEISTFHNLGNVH
T1 sequence (Q07011 24-255): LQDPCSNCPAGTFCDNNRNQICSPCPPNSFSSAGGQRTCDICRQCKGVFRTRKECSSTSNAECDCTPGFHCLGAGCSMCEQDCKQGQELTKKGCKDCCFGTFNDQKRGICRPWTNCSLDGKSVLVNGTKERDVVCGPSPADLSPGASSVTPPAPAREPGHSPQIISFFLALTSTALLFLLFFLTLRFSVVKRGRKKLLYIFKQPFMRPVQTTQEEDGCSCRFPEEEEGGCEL

EC50 [1]: 13.1 nM
EC50 [2]: 0.52 nM
EC50 [3]: 0.19 nM
B1: fusion protein SEQ ID NOs: 87 and 82 (bispecific antibody, human IgG4 S228P, kappa, F234A L235A)
heavy: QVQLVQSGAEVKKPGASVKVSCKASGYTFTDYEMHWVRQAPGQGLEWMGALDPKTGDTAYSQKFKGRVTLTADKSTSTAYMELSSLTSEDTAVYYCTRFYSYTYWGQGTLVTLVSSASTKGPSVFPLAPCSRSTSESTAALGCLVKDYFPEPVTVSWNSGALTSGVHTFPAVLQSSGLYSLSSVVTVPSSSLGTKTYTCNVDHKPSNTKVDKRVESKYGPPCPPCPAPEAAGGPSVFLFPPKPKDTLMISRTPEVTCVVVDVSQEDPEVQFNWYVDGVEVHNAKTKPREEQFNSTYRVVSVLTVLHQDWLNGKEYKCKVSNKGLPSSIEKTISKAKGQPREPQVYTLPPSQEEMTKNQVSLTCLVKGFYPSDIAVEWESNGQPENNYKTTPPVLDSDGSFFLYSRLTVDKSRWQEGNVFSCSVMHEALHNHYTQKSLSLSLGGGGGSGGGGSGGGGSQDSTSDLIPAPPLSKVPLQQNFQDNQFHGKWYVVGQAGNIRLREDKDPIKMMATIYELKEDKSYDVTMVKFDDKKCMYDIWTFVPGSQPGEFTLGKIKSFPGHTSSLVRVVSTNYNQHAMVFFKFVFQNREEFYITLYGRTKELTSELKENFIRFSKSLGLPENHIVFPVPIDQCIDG
light: DVVMTQSPLSLPVTPGEPASISCRSSQSLVHSNRNTYLHWYLQKPGQSPQLLIYKVSNRFSGVPDRFSGSGSGTDFTLKISRVEAEDVGVYYCSQNTHVPPTFGQGTKLEIKRTVAAPSVFIFPPSDEQLKSGTASVVCLLNNFYPREAKVQWKVDNALQSGNSQESVTEQDSKDSTYSLSSTLTLSKADYEKHKVYACEVTHQGLSSPVTKSFNRGEC
notes: also called exemplary fusion protein
